Values belong to the molecule of their own block, whether it stands above or below them.
What was measured:
[1] = target: biotinylated hBLyS-ECD (human) (UniProt Q9Y275); assay: ELISA on captured biotinylated hBLyS-ECD; control antibody 0.107 nM
[2] = target: biotinylated hBLyS-ECD (human) (UniProt Q9Y275); assay: BAFF R-coated ELISA, biotinylated hBLyS-ECD bound in presence of control antibody 0 nM
[3] = target: extracellular domain of human BLyS protein (hBLyS-ECD), His-tagged, Ala134-Leu285 (human) (UniProt Q9Y275); assay: cell-based or functional assay
[4] = target: extracellular domain of human BLyS protein (hBLyS-ECD), His-tagged, Ala134-Leu285 (human, UniProt Q9Y275 134-285); assay: cell-based or functional assay

OD450 nm [1]: 0.117 OD450 nm
OD450 nm [2]: 2 OD450 nm
Proportion of B lymphocytes in splenocytes (%), in vivo in mice [3]: 39.4%
Molecule: hIgG Control (antibody)

Proportion of B lymphocytes in splenocytes (%), in vivo in mice [4]: 28.2%
B1: c97A3C2H4 (antibody, V domains shown)
VH: EVKLVESGGGLVQPGGSLKLSCAASGFTFSTYTMSWVRQTPEKRLEWVAYISYGGGSTSYPDTVKGRFTISRDNAKNTLYLQMSSLKSEDTAIYYCTRHVTVVENSMDYWGQGTSVTVSS
VL: DILLTQSPDILSVSPGERVSFSCRASQSIGTSIHWYQQRTNGSPRLLIKYVSESFSGTPSRFSGSGSGTAFTLTINSVESEDIADYYCQQTHSWPWTFGGGTKLEIK
notes: also called chimeric antibody c97A3C2H4
